Test results reported in article PMC6486636 (2019).
Blank lines part the entries; values can stand above or below the binder they belong to.

Key:
[1] = target: T1, His-SUMO-MLLE (PABPC1 MLLE domain 544-626 fused with a His-tagged SUMO tag) (Homo sapiens (Human), UniProt P11940); assay: Ni-NTA pull-down, SDS-PAGE
T1 chain: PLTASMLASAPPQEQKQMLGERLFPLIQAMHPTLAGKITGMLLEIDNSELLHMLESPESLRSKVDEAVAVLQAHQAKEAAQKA

[2] = target: LARP4A (1-287), N-terminal domain (Homo sapiens (Human), UniProt Q71RC2); assay: competition EMSA (MLLE displacing 32P-oligoA15 from NTD); mutually exclusive with oligoA15 RNA; measured by competition with preformed NTD-oligoA15 complex
Sequence of LARP4A (1-287), N-terminal domain (Homo sapiens (Human), UniProt Q71RC2) (Q71RC2 1-287): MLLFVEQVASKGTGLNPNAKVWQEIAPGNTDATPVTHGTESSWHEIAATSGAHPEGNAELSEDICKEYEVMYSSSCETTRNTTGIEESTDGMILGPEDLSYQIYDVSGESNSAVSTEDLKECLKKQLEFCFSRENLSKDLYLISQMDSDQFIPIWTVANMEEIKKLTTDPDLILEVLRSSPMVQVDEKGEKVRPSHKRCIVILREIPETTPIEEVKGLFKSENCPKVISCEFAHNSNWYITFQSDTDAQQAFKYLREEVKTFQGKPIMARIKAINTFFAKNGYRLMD

binding result [1]: binds
B1: LARP4A (1-287), N-terminal domain (protein)
chain: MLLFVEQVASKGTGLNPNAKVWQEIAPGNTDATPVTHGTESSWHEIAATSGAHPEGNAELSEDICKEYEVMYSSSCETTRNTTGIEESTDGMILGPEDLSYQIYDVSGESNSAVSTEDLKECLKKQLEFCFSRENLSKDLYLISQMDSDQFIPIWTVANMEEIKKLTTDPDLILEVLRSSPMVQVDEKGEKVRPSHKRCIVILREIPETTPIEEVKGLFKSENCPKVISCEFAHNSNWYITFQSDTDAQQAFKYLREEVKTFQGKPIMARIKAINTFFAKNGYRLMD

binding result [2]: binds
B2: PABPC1 MLLE (544-626) (protein)
chain: T1 chain
